According to patent US20140302055A1:

What was measured:
[1] = molecular target: Angiopoietin-like protein 4 (ANGPTL4), recombinant V5-his tagged secreted product (UniProt Q9BY76); assay: SPR (BiaCore) low resolution, mAb captured on goat anti-human surface, ANGPTL4 at 292 nM, 25 C
[2] = molecular target: Angiopoietin-like protein 4 (ANGPTL4), recombinant V5-his tagged secreted product (UniProt Q9BY76); assay: SPR (BiaCore 2000) medium resolution, mAb captured on goat anti-human surface, ANGPTL4 6-198 nM (593 nM left out of the fit), 1:1 model with mass transport

Kd [1] [nM] | koff [1] [s⁻¹] | kon [1] [M⁻¹ s⁻¹] | Kd [2] [nM] | koff [2] [s⁻¹] | kon [2] [M⁻¹ s⁻¹] | Binder
15 | 0.00071 | 49000 |  |  |  | anti-ANGPTL4 monoclonal antibody 1.3.1 (antibody, part only; not given: light chain, human IgG2, V domains shown, part only) VH: EVQLVESGGGLIQPGGSLRLSCAASGFTVSTNYMSWVRQAPGKGLDWVSIIYSDDNTYYADSVKGRFTISRDNSKNTLYLQMNSLRAEDSAVYYCAGTGTTDYYYGLDVWGLGTTVTVSSA
16 | 0.0011 | 67000 | 7.9 | 0.000786 | 99800 | anti-ANGPTL4 monoclonal antibody 1.7.3 (antibody, human IgG2, V domains shown) VH: QVQLVESGGGVVQPGRSLRLSCAASGFTFSSYGIHWIRQAPGKGLEWVAVIWYDGSHKYYADSVKGRFTISRDNSKNTLYLQMNSLRAEDTAVYYCARDGITMVRGVLYYFYGMDVWGQGTTVTVSS VL: DIQMTQSPSSLSASVGDRVTITCRASQGISNYLAWYQQKPGKVPKLLIYAASTLQSGVPSRFSGSGSGTDFTLTISSLQPEDFATYYCQEFNSAPLTFGGGTKVEIKR
11 | 0.00068 | 63000 |  |  |  | anti-ANGPTL4 monoclonal antibody 1.10.2 (antibody, human IgG2, V domains shown) VH: QVQLVQSGAEVKKPGASVKDSCKASGFTFTSYGISWVRQAPGQGLEWMGWISAYNGNKNYAQKLQGRVTMTTDTSTSTAYMELRSLRSDDTAVYYCARDDCSRASCSYYYGMDVWGQGTAVTVSS VL: DIVMTQTPLSLAVTPGQPASISCKSSQSLLHSDRKTYLYWYLQKPGQPPQLLIYEVSNRFSGVPDRFSGSGSGTDFTLKISRVEAEDVGVYYCMQSIQLPWTFGQGTKVEIKR
